Bounds are passed on as bounds.

One assay addresses HLA-C*03:03. Kind of assay: IEDB peptide-MHC binding, purified MHC/direct/fluorescence; filed as Kd, often an IC50 or EC50 that approximates it; ≥ and ≤ were set here for values at or beyond the usual limits of such assays.
In another assay the target is HLA-C*12:03. The description is as above.
The target in a further assay is HLA-C*15:02. The assay is described as above. The note with it: source organism: Mycobacterium tuberculosis H37Ra.
In a further assay the target is HLA-B*08:01. Described as above.
The target in another assay is HLA-B*15:02. Kind of assay: IEDB peptide-MHC binding, purified MHC/competitive/fluorescence; filed as Kd, often an IC50 or EC50 that approximates it; ≥ and ≤ were set here for values at or beyond the usual limits of such assays.
The next assay deals with HLA-B*14:02. As to the kind of experiment: IEDB peptide-MHC binding, purified MHC/competitive/fluorescence; ≥ and ≤ were set here for values at or beyond the usual limits of such assays. Particulars: source organism: Human immunodeficiency virus 1.
The target of the next assay is HLA-B*35:01. Kind of assay: IEDB peptide-MHC binding, purified MHC/competitive/fluorescence; filed as Kd, often an IC50 or EC50 that approximates it; ≥ and ≤ were set here for values at or beyond the usual limits of such assays.
For a further assay, the target named is HLA-A*11:01. The assay is described as above. The note with it: source organism: Human immunodeficiency virus 1.
In assay [1] the target is HLA-A*02:03. The description is as above. Particulars: source organism: Human immunodeficiency virus 1.
The next assay deals with HLA-A*30:01. The assay is described as above. Particulars: source organism: Human immunodeficiency virus 1.
The next assay concerns the target HLA-B*15:01. The assay is described as above.
A further assay deals with HLA-A*26:02. The description is as above. Particulars: source organism: Human immunodeficiency virus 1.
Another assay concerns the target HLA-B*57:01. The description is as above.
The target in the next assay is HLA-B*15:17. Described as above. The note with it: source organism: Human immunodeficiency virus 1.
Another assay addresses HLA-B*18:01. The description is as above. The note with it: source organism: Human immunodeficiency virus 1.
In a further assay the target is HLA-A*02:06. The assay is described as above. Particulars: source organism: Human immunodeficiency virus 1.
A further assay addresses HLA-A*01:01. The description is as above.
For the next assay, the target named is HLA-A*69:01. Described as above. Particulars: source organism: Zaire ebolavirus.
Another assay has as its target HLA-A*26:01. The assay is described as above. The note with it: source organism: Zaire ebolavirus.
Another assay addresses HLA-B*27:05. Described as above.
A further assay has as its target HLA-A*02:01. Described as above. Particulars: source organism: Zaire ebolavirus.
The target in the next assay is HLA-B*39:01. Described as above. The note with it: source organism: Zaire ebolavirus.
The target in another assay is HLA-B*46:01. Described as above. The note with it: source organism: Zaire ebolavirus.
The target in the next assay is HLA-B*51:01. Described as above. Particulars: source organism: Zaire ebolavirus.
Assay [2] concerns the target HLA-A*02:03. As to the kind of experiment: IEDB peptide-MHC binding, purified MHC/direct/fluorescence; filed as Kd, often an IC50 or EC50 that approximates it; ≥ and ≤ were set here for values at or beyond the usual limits of such assays. The note with it: source organism: Ebola virus Yambio0403.
The next assay deals with HLA-A*68:02. The assay is described as above. Particulars: source organism: Ebola virus Yambio0403.
The target in the next assay is HLA-A*02:16. Described as above. Particulars: source organism: Ebola virus Yambio0403.
In the next assay the target is HLA-A*02:19. Described as above. The note with it: source organism: Ebola virus Yambio0403.
Assay [3] has as its target HLA-A*03:01. The description is as above. The note with it: source organism: Ebola virus Yambio0403.
The next assay deals with HLA-A*02:12. The assay is described as above. Particulars: source organism: Ebola virus Yambio0403.
A further assay deals with HLA-C*14:02. Described as above.
The target in the next assay is HLA-B*58:01. Kind of assay: IEDB peptide-MHC binding, purified MHC/competitive/fluorescence; filed as Kd, often an IC50 or EC50 that approximates it; ≥ and ≤ were set here for values at or beyond the usual limits of such assays.
Another assay concerns the target HLA-B*07:02. Described as above. The note with it: source organism: Influenza A virus (A/duck/Bavaria/1/1977(H1N1)).
In the next assay the target is HLA-C*05:01. As to the kind of experiment: IEDB peptide-MHC binding, purified MHC/direct/fluorescence; filed as Kd, often an IC50 or EC50 that approximates it; ≥ and ≤ were set here for values at or beyond the usual limits of such assays. Particulars: source organism: Influenza A virus (A/duck/Bavaria/1/1977(H1N1)).
The target of a further assay is HLA-C*07:02. Described as above.
Assay [4] concerns the target HLA-A*03:01. As to the kind of experiment: IEDB peptide-MHC binding, purified MHC/competitive/fluorescence; filed as Kd, often an IC50 or EC50 that approximates it; ≥ and ≤ were set here for values at or beyond the usual limits of such assays. Particulars: source organism: Escherichia coli O139:H28 str. E24377A.
Another assay addresses HLA-A*24:02. Described as above. The note with it: source organism: Entamoeba histolytica HM-1:IMSS.
Where [5] appears, read: source organism: Mycobacterium tuberculosis H37Ra.
Setting [6] is: source organism: Human immunodeficiency virus 1.
Where [7] appears, read: source organism: Zaire ebolavirus.
[8] abbreviates: source organism: Shigella boydii CDC 3083-94.
The mark [9] stands for this setting: source organism: Escherichia coli O139:H28 str. E24377A.
The mark [10] stands for this setting: source organism: Entamoeba histolytica HM-1:IMSS.
Where [11] appears, read: source organism: Yellow fever virus.

Regarding KAAGAAVAL, the dissociation constant Kd in the assay with HLA-C*03:03 (setting [5]) is 2 nM; in the assay with HLA-C*12:03 (setting [5]), 76 nM; in the assay with HLA-C*15:02 it was 1770 nM.

As for IMYNYPAML, the Kd with HLA-C*03:03 (source organism: Mycobacterium leprae) came out at 45 nM; with HLA-B*08:01 (source organism: Mycobacterium tuberculosis), 2680 nM.

For the sequence TQHFGWHAF, in the assay with HLA-B*15:02 (source organism: Vibrio antiquarius), the dissociation constant Kd is 21.4 nM.

Consider KHYMLKHL, for which, in the assay with HLA-B*14:02, the IC50 is ≥ 20000 nM.

As to KSLFNTIAVLY, the Kd with HLA-B*35:01 (setting [6]) worked out at 1010 nM; with HLA-A*11:01 it was 1920 nM; with HLA-A*02:03 [1], 566 nM; with HLA-A*30:01, 1350 nM; with HLA-B*15:01 (setting [6]) it was 1200 nM; in the assay with HLA-A*26:02, 1110 nM. The Kd with HLA-B*57:01 (setting [6]) was 190 nM; with HLA-B*15:17, 21.3 nM; with HLA-B*18:01, 260 nM; with HLA-A*02:06, 206 nM; with HLA-A*01:01 (setting [6]), 2130 nM.

As to NLYGWHLPL, the Kd in the assay with HLA-B*15:02 (source organism: Escherichia coli APEC O1) worked out at 9.5 nM.

For the sequence FRYEFTAPF, the dissociation constant (Kd) with HLA-A*69:01 was ≥ 20000 nM; in the assay with HLA-B*35:01 (setting [7]), 952 nM; with HLA-A*26:01, ≥ 20000 nM; with HLA-B*27:05 (setting [7]), 724 nM; in the assay with HLA-A*02:01 it was ≥ 20000 nM; with HLA-B*57:01 (setting [7]), ≥ 20000 nM. The equilibrium dissociation constant (Kd) with HLA-B*39:01 is 0.7 nM; with HLA-B*46:01, ≥ 20000 nM; in the assay with HLA-B*51:01 it was ≥ 20000 nM; with HLA-A*02:03 [2] it was ≥ 20000 nM; with HLA-A*68:02, ≥ 20000 nM; with HLA-A*02:16, ≥ 20000 nM. The Kd with HLA-A*02:19 was ≥ 20000 nM; in the assay with HLA-A*03:01 [3], ≥ 20000 nM; in the assay with HLA-A*02:12 it was ≥ 20000 nM; in the assay with HLA-C*14:02 (setting [7]), 209 nM; with HLA-B*08:01 (setting [7]) it was 6570 nM.

In the case of YRWVNLASF, the Kd in the assay with HLA-B*27:05 (source organism: Mammarenavirus juninense) came out at 98.1 nM.

Take KAWSEGLAM: the equilibrium dissociation constant (Kd) in the assay with HLA-B*35:01 (setting [8]) amounted to 0.2 nM; with HLA-B*58:01 (setting [8]), 458 nM.

The sequence ELYPGDSAH displayed a dissociation constant Kd with HLA-B*15:02 (source organism: Clostridium botulinum A str. ATCC 3502) of 615 nM.

Turning to LPFQNIHPI, the Kd in the assay with HLA-B*07:02 is 104 nM; with HLA-C*05:01 it was ≥ 20000 nM; with HLA-C*07:02 (source organism: Influenza A virus (A/duck/Bavaria/1/1977(H1N1))), ≥ 20000 nM.

For LANWCLLNY, the equilibrium dissociation constant (Kd) is 4.6 nM in the assay with HLA-B*35:01 (setting [9]); 2380 nM with HLA-B*15:01 (setting [9]); ≥ 20000 nM with HLA-A*03:01 [4]; 104 nM in the assay with HLA-B*58:01 (setting [9]); 1670 nM with HLA-A*01:01 (setting [9]).

On to KYNSHHFTF, for which the Kd in the assay with HLA-A*24:02 is ≤ 0.1 nM; with HLA-C*07:02 (setting [10]) it was 2 nM; in the assay with HLA-C*14:02 (setting [10]), 80 nM.

With VAIDRPAEV, the Kd in the assay with HLA-C*03:03 (setting [11]) was 2 nM; in the assay with HLA-C*12:03 (setting [11]), ≤ 1 nM.

With ILLFPLPSF, the dissociation constant Kd with HLA-B*15:02 (setting [10]) came out at 2060 nM.

For orientation: Kd means the concentration at which binding is half-saturated. A higher Kd goes with a looser complex. Usually IC50 stands for the point on the concentration scale where inhibition reaches its midpoint. Lower therefore signals inhibition by little substance.
